Results published in US20210261648A1 (published 2021).

T1: FcγRIIa type H (human, UniProt P12318 34-217)
T1 construct: extracellular domain; also called FcγRIIaH; FcgRIIaH
T1 sequence (looked up): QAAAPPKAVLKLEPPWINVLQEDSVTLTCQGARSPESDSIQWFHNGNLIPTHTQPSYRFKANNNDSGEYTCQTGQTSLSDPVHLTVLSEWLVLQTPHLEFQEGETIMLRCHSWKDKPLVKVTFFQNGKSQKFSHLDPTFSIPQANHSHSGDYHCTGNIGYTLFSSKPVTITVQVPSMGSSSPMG

T2: FcγRIIa type R (human, UniProt P12318 34-217)
T2 chain: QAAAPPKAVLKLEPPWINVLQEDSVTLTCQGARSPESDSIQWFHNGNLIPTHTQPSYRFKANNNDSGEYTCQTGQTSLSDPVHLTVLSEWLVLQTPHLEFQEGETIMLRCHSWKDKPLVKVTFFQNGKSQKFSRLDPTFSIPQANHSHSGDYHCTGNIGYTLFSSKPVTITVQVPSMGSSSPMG

T3: FcγRIIb (human, UniProt P31994 43-217)
T3 construct: extracellular domain; also called FcgRIIb; CD32B
T3 sequence (looked up): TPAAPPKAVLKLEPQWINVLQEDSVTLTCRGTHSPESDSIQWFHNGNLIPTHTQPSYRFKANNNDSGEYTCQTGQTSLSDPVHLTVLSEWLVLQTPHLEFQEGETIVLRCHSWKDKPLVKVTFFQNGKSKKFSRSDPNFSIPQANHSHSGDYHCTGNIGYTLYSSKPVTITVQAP


Columns and labels:
FcγRIIa type H = target: T1, FcγRIIa type H; assay: SPR (Biacore), captured antibody, soluble FcγR
FcγRIIa type R [1] = target: T2, FcγRIIa type R; assay: SPR (Biacore), captured antibody, soluble FcγR
FcγRIa = target: T4, FcγRIa (human, UniProt P12314 16-292); assay: SPR (Biacore), captured antibody, soluble FcγR
T4 construct: Whole entry named; also called FcgRIa; CD64A
T4 sequence (P12314 16-292): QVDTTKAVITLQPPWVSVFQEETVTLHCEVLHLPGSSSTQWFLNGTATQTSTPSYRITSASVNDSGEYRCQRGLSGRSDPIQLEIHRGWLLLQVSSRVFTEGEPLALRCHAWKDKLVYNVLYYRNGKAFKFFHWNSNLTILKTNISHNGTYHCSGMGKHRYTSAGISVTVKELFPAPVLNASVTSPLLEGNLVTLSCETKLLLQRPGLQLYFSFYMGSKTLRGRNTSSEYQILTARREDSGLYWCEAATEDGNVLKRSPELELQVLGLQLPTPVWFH

FcγRIIb [2] = target: T3, FcγRIIb; assay: SPR (Biacore); parent = IL6R-B3/IL6R-L
FcγRIIa type R [3] = target: T2, FcγRIIa type R; assay: SPR (Biacore); parent = IL6R-B3/IL6R-L
FcγRIIb [4] = target: T3, FcγRIIb; assay: SPR (Biacore), captured antibody, soluble FcγR

| Binder | Kd (FcγRIIa type H) | Kd (FcγRIIa type R [1]) | Kd (FcγRIa) | KD(IIb) of the parent polypeptide/KD(IIb) of the altered polypeptide (FcγRIIb [2]) | KD(IIaR) of the parent polypeptide/KD(IIaR) of the altered polypeptide (FcγRIIa type R [3]) | Kd (FcγRIIb [4]) |
| --- | --- | --- | --- | --- | --- | --- |
| IL6R-BP438/IL6R-L (antibody, human IgG1, kappa, Alterations in EU numbering, introduced into IL6R-B3) heavy: QVQLQESGPGLVKPSETLSLTCAVSGHSISHDHAWSWVRQPPGEGLEWIGFISYSGITNYNPSLQGRVTISRDNSKNTLYLQMNSLRAEDTAVYYCARSLARTTAMDYWGEGTLVTVSSASTKGPSVFPLAPSSKSTSGGTAALGCLVKDYFPEPVTVSWNSGALTSGVHTFPAVLQSSGLYSLSSVVTVPSSSLGTQTYICNVNHKPSNTKVDKKVEPKSCDKTHTCPPCPAPDLLGDDSVFLFPPKPKDTLMISRTPEVTCVVVDVAEEDGEVKFNWYVDGVEVHNAKTKPREEQYNSTYRVVSVLTVLHQDWLNGKEYKCKVSNKALPRPTEKTISKAKGQPREPQVYTLPPSRDELTKNQVSLTCLVKGFYPSDIAVEWESNGQPENNYKTTPPVLDSDGSFFLYSKLTVDKSRWQQGNVFSCSVMHEALHNHYTQESLSLSP light: not shown | 1600 nM | 180 nM |  |  |  |  |
| IL6R-BP554/IL6R-L (antibody, human IgG1, kappa, Alterations in EU numbering, introduced into IL6R-B3) heavy: QVQLQESGPGLVKPSETLSLTCAVSGHSISHDHAWSWVRQPPGEGLEWIGFISYSGITNYNPSLQGRVTISRDNSKNTLYLQMNSLRAEDTAVYYCARSLARTTAMDYWGEGTLVTVSSASTKGPSVFPLAPSSKSTSGGTAALGCLVKDYFPEPVTVSWNSGALTSGVHTFPAVLQSSGLYSLSSVVTVPSSSLGTQTYICNVNHKPSNTKVDKKVEPKSCDKTHTCPPCPAPELLGDDSVFLFPPKPKDTLMISRTPEVTCVVIDVAEEDGDVKFNWYVDGVEVHNAKTKPREEQYNSTYRVVSVLTVLHQDWLNGKEYKCKVSNKALPRPIEKTISKAKGQPREPQVYTLPPSRDELTKNQVSLTCLVKGFYPSDIAVEWESNGQPENNYKTTPPVLDSDGSFFLYSKLTVDKSRWQQGNVFSCSVMHEALHNHYTQESLSLSP light: not shown | 2300 nM | 150 nM | 8 nM |  |  |  |
| IL6R-BP491/IL6R-L (antibody, human IgG1, kappa, Alterations in EU numbering, introduced into IL6R-B3) heavy: QVQLQESGPGLVKPSETLSLTCAVSGHSISHDHAWSWVRQPPGEGLEWIGFISYSGITNYNPSLQGRVTISRDNSKNTLYLQMNSLRAEDTAVYYCARSLARTTAMDYWGEGTLVTVSSASTKGPSVFPLAPSSKSTSGGTAALGCLVKDYFPEPVTVSWNSGALTSGVHTFPAVLQSSGLYSLSSVVTVPSSSLGTQTYICNVNHKPSNTKVDKKVEPKSCDKTHTCPPCPAPELLGDDSVFLFPPKPKDTLMISRTPEVTCVVIDVAEEDGEVKFNWYVDGVEVHNAKTKPREEQDNSTYRVVSVLTVLHQDWLNGKEYKCKVSNKALPRPIEKTISKAKGQPREPQVYTLPPSRDELTKNQVSLTCLVKGFYPSDIAVEWESNGQPENNYKTTPPVLDSDGSFFLYSKLTVDKSRWQQGNVFSCSVMHEALHNHYTQESLSLSP light: not shown | 2200 nM | 120 nM | 5.3 nM | 1020 fold | 9.3 fold | 3 nM |
| IL6R-BP496/IL6R-L (antibody, human IgG1, kappa, Alterations in EU numbering, introduced into IL6R-B3) heavy: QVQLQESGPGLVKPSETLSLTCAVSGHSISHDHAWSWVRQPPGEGLEWIGFISYSGITNYNPSLQGRVTISRDNSKNTLYLQMNSLRAEDTAVYYCARSLARTTAMDYWGEGTLVTVSSASTKGPSVFPLAPSSKSTSGGTAALGCLVKDYFPEPVTVSWNSGALTSGVHTFPAVLQSSGLYSLSSVVTVPSSSLGTQTYICNVNHKPSNTKVDKKVEPKSCDKTHTCPPCPAPDLLGDDSVFLFPPKPKDTLMISRTPEVTCVVIDVAEEDGEVKFNWYVDGVEVHNAKTKPREEQDNSTYRVVSVLTVLHQDWLNGKEYKCKVSNKALPAPIEKTISKAKGQPREPQVYTLPPSRDELTKNQVSLTCLVKGFYPSDIAVEWESNGQPENNYKTTPPVLDSDGSFFLYSKLTVDKSRWQQGNVFSCSVMHEALHNHYTQESLSLSP light: not shown | 3700 nM | 470 nM | 1.2 nM | 168 fold | 2.3 fold | 18 nM |
| IL6R-BP488/IL6R-L (antibody, human IgG1, kappa, Alterations in EU numbering, introduced into IL6R-B3) heavy: QVQLQESGPGLVKPSETLSLTCAVSGHSISHDHAWSWVRQPPGEGLEWIGFISYSGITNYNPSLQGRVTISRDNSKNTLYLQMNSLRAEDTAVYYCARSLARTTAMDYWGEGTLVTVSSASTKGPSVFPLAPSSKSTSGGTAALGCLVKDYFPEPVTVSWNSGALTSGVHTFPAVLQSSGLYSLSSVVTVPSSSLGTQTYICNVNHKPSNTKVDKKVEPKSCDKTHTCPPCPAPDLLGDDSVFLFPPKPKDTLMISRTPEVTCVVIDVAEEDGEVKFNWYVDGVEVHNAKTKPREEQDNSTYRVVSVLTVLHQDWLNGKEYKCKVSNKALPRPIEKTISKAKGQPREPQVYTLPPSRDELTKNQVSLTCLVKGFYPSDIAVEWESNGQPENNYKTTPPVLDSDGSFFLYSKLTVDKSRWQQGNVFSCSVMHEALHNHYTQESLSLSP light: not shown | 1600 nM | 74 nM | 2.2 nM | 1680 fold | 14.8 fold | 1.9 nM |
| IL6R-BP558/IL6R-L (antibody, human IgG1, kappa, Alterations in EU numbering, introduced into IL6R-B3) heavy: QVQLQESGPGLVKPSETLSLTCAVSGHSISHDHAWSWVRQPPGEGLEWIGFISYSGITNYNPSLQGRVTISRDNSKNTLYLQMNSLRAEDTAVYYCARSLARTTAMDYWGEGTLVTVSSASTKGPSVFPLAPSSKSTSGGTAALGCLVKDYFPEPVTVSWNSGALTSGVHTFPAVLQSSGLYSLSSVVTVPSSSLGTQTYICNVNHKPSNTKVDKKVEPKSCDKTHTCPPCPAPELLGDDSVFLFPPKPKDTLMISRTPEVTCVVIDVGEEDGDVKFNWYVDGVEVHNAKTKPREEQYNSTYRVVSVLTVLHQDWLNGKEYKCKVSNKALPRPIEKTISKAKGQPREPQVYTLPPSRDELTKNQVSLTCLVKGFYPSDIAVEWESNGQPENNYKTTPPVLDSDGSFFLYSKLTVDKSRWQQGNVFSCSVMHEALHNHYTQESLSLSP light: not shown | 4900 nM | 330 nM |  |  |  | 9 nM |

The next binders have a lower Kd (FcγRIIa type H) than those just listed; values first:

| Kd (FcγRIIa type H) | Kd (FcγRIIa type R [1]) | Kd (FcγRIa) | KD(IIb) of the parent polypeptide/KD(IIb) of the altered polypeptide (FcγRIIb [2]) | KD(IIaR) of the parent polypeptide/KD(IIaR) of the altered polypeptide (FcγRIIa type R [3]) | Kd (FcγRIIb [4]) | Binder |
| --- | --- | --- | --- | --- | --- | --- |
| 840 nM | 39 nM | 1.2 nM | 2700 fold | 28.3 fold | 1.2 nM | IL6R-BP487/IL6R-L (antibody, human IgG1, kappa, Alterations in EU numbering, introduced into IL6R-B3) heavy: QVQLQESGPGLVKPSETLSLTCAVSGHSISHDHAWSWVRQPPGEGLEWIGFISYSGITNYNPSLQGRVTISRDNSKNTLYLQMNSLRAEDTAVYYCARSLARTTAMDYWGEGTLVTVSSASTKGPSVFPLAPSSKSTSGGTAALGCLVKDYFPEPVTVSWNSGALTSGVHTFPAVLQSSGLYSLSSVVTVPSSSLGTQTYICNVNHKPSNTKVDKKVEPKSCDKTHTCPPCPAPDLLGDDSVFLFPPKPKDTLMISRTPEVTCVVIDVAEEDGEVKFNWYVDGVEVHNAKTKPREEQYNSTYRVVSVLTVLHQDWLNGKEYKCKVSNKALPRPIEKTISKAKGQPREPQVYTLPPSRDELTKNQVSLTCLVKGFYPSDIAVEWESNGQPENNYKTTPMVLDSDGSFFLYSKLTVDKSRWQQGNVFSCSVMHEALHNHYTQESLSLSP light: not shown |
| 960 nM | 85 nM | 2.1 nM | 764 fold | 12.9 fold | 4.1 nM | IL6R-BP497/IL6R-L (antibody, human IgG1, kappa, Alterations in EU numbering, introduced into IL6R-B3) heavy: QVQLQESGPGLVKPSETLSLTCAVSGHSISHDHAWSWVRQPPGEGLEWIGFISYSGITNYNPSLQGRVTISRDNSKNTLYLQMNSLRAEDTAVYYCARSLARTTAMDYWGEGTLVTVSSASTKGPSVFPLAPSSKSTSGGTAALGCLVKDYFPEPVTVSWNSGALTSGVHTFPAVLQSSGLYSLSSVVTVPSSSLGTQTYICNVNHKPSNTKVDKKVEPKSCDKTHTCPPCPAPDLLGDDSVFLFPPKPKDTLMISRTPEVTCVVIDVAEEDGEVKFNWYVDGVEVHNAKTKPREEQYNSTYRVVSVLTVLHQDWLNGKEYKCKVSNKGLPRPIEKTISKAKGQPREPQVYTLPPSRDELTKNQVSLTCLVKGFYPSDIAVEWESNGQPENNYKTTPPVLDSDGSFFLYSKLTVDKSRWQQGNVFSCSVMHEALHNHYTQESLSLSP light: not shown |
| 870 nM | 43 nM | 1.3 nM | 3100 fold | 25.7 fold | 1 nM | IL6R-BP489/IL6R-L (antibody, human IgG1, kappa, Alterations in EU numbering, introduced into IL6R-B3) heavy: QVQLQESGPGLVKPSETLSLTCAVSGHSISHDHAWSWVRQPPGEGLEWIGFISYSGITNYNPSLQGRVTISRDNSKNTLYLQMNSLRAEDTAVYYCARSLARTTAMDYWGEGTLVTVSSASTKGPSVFPLAPSSKSTSGGTAALGCLVKDYFPEPVTVSWNSGALTSGVHTFPAVLQSSGLYSLSSVVTVPSSSLGTQTYICNVNHKPSNTKVDKKVEPKSCDKTHTCPPCPAPDLLGDDSVFLFPPKPKDTLMISRTPEVTCVVIDVAEEDGEVKFNWYVDGVEVHNAKTKPREEQDNSTYRVVSVLTVLHQDWLNGKEYKCKVSNKALPRPIEKTISKAKGQPREPQVYTLPPSRDELTKNQVSLTCLVKGFYPSDIAVEWESNGQPENNYKTTPMVLDSDGSFFLYSKLTVDKSRWQQGNVFSCSVMHEALHNHYTQESLSLSP light: not shown |
